These results are taken from patent US20210236614A1.

Where “and” joins values, the source holds several entries; their conditions need not be identical. Identical values can stand only once.

Test in all cases: ELISA, His-PD1 on nickel plate, conjugate only control
A general note: ELISA stands for enzyme-linked immunosorbent assay.

In test [1] the target is His tagged canine PD1 (Sino) (canine).
In test [2] the target is His tagged mouse PD1 (Sino) (mouse) (UniProt Q02242).
In test [3] the target is His tagged rat PD1 (Sino) (rat) (UniProt D3ZIN8).
Test [4] concerns the target His tagged rhesus monkey PD1 (Sino) (rhesus monkey) (UniProt B0LAJ2).

Chain of His tagged mouse PD1 (Sino) (mouse) (Q02242 25-167 limits assumed): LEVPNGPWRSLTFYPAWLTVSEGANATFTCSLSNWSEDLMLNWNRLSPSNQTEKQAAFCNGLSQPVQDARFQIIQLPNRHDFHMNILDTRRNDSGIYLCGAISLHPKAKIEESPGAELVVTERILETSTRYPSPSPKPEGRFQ
Chain of His tagged rhesus monkey PD1 (Sino) (rhesus monkey) (B0LAJ2 entry or part of it limits assumed, form in doubt): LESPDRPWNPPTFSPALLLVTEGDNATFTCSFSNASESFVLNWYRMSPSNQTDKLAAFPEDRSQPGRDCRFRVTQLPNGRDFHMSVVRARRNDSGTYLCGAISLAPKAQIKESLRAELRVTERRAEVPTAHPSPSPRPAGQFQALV
Chain of His tagged rat PD1 (Sino) (rat) (D3ZIN8 entry or part of it limits assumed, form in doubt): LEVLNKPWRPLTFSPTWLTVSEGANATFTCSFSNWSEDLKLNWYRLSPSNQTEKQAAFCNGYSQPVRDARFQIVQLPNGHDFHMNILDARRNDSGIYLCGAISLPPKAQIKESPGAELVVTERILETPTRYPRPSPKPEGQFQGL

As to “horseradish peroxidase-labeled anti-rabbit antibody (conjugate only control)”, the OD in test [1] is 0.059 OD and 0.06 OD; in test [2], 0.066 OD and 0.064 OD; in test [3], 0.055 OD; in test [4] it was 0.063 OD and 0.058 OD.
